Reference: the supplement of paper PMC10567573
± gives the standard deviation.

Experiment: protein stability index of a GFP-peptide fusion (GPS, HEK-293T) (PSI 1-6); higher = more stable
[1] = treatment: DMSO, c terminus: a fixed tail appended
[2] = treatment: MLN4924 1 uM, 8 h, c terminus: a fixed tail appended
[3] = treatment: DMSO, c terminus: native
[4] = treatment: MLN4924 1 uM, 8 h, c terminus: native
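Also: 24-mer peptide tiles fused after GFP, lentivirally expressed, FACS-sorted into six equal bins by GFP/DsRed ratio, decoded by Illumina sequencing, PSI is the read-weighted mean bin number.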

Sequence	protein stability index [1]	protein stability index [2]	protein stability index [3]	protein stability index [4]
ESSSPARGIAIVSVLVILISIVIF [KCNA4]	3.13 ± 0.59	2.9 ± 0.33	–	–
ESTLYPNPYHQPYISRKYFATRPG [TPRG1]	2.76 ± 0.43	3.03 ± 0.088	–	–
ESVADLLALEEPVDYKQSVLNVAG [SLC6A17]	4.43 ± 0.1	4.58 ± 0.24	–	–
ETLLGDPEKRTQYFDPLRNEYFFD [KCNA4]	2.91 ± 0.48	3.81 ± 0.9	–	–
ETPGCATLLPASLFVNSHPGIDRP [DCAF4]	3.61 ± 0.3	3.75 ± 0.1	–	–
ETQKLLCKNGETLLGAVNFFVSSI [ARFIP2]	2.49 ± 0.52	2.25 ± 0.36	–	–
ETVYAAYLPKNTHPFLYLSLEISP [MLH1]	2.82 ± 0.51	–	–	–
EVAAQLPAVRQLLPCARVQICRAQ [ZSWIM9]	2.42 ± 0.23	2.77 ± 0.35	–	–
EVHVPPSSAVSGVKEWFGLGGEQA [MIA2]	4.31 ± 0.22	4.29 ± 0.44	–	–
EVPLEVLRQRESKWLDMLNNWDKW [TBC1D10A]	2.8 ± 0.18	3.17 ± 0.49	–	–
EVTVQRNCCLTLCNFSIPEELEFQ [ZER1]	2.68 ± 0.26	2.59 ± 0.42	–	–
EVWGNALLRPPVAAFVRAQADLLA [DNAAF3]	2.39 ± 0.31	2.02 ± 0.37	–	–
EYEGGHIKTAVNLPLERDAESFLL [CDC25B]	3.91 ± 0.16	3.97 ± 0.21	–	–
EYRQRRERNNIAVRKSRDKAKRRN [CEBPD]	4.42 ± 0.36	4.426 ± 0.023	–	–
FALQGLPLNCAPCPRRSEPVVQCQ [IRX6]	2.7 ± 0.16	2.79 ± 0.28	–	–
FAPLWEVFRVSSDKLALCHLELTR [FCHO1]	2.68 ± 0.36	2.52 ± 0.29	–	–
FAQADALKGTLVSTLKEVKPTVFI [ACSBG2]	2.4 ± 0.52	3.04 ± 0.86	–	–
FEPPAPGEGNSSQNSRNKRAVQGP [TNFSF13B]	5.3 ± 0.17	5.45 ± 0.2	–	–
FEYRGEQHKTCMLNATSKFMEFYQ [EDNRA]	2.08 ± 0.36	1.89 ± 0.32	–	–
FGEDGIFRHDRLRFRDFVDALEDS [PBXIP1]	3.29 ± 0.32	3.58 ± 0.46	–	–
FGLSILWVLLFTPCSFVCWYRPMY [SCAMP3]	2.97 ± 0.37	3.48 ± 0.32	–	–
FGNSEKPETMTCRLSNNQRYLFLD [ZFYVE21]	2.44 ± 0.42	2.1 ± 0.54	–	–
FHEVGTEMIITKAGRRMFPSYKVK [TBX5]	2.35 ± 0.35	2.72 ± 0.33	–	–

Sequence	protein stability index [1]	protein stability index [2]	protein stability index [3]	protein stability index [4]
FHRSQTLSYRNGYAIVRRPTVGIG [EFHC1]	2.44 ± 0.39	2.54 ± 0.22	–	–
FHYVDILALLPAAWEDSHGSQDGH [SCNN1D]	2.26 ± 0.56	2.13 ± 0.25	–	–
FKLADPDEVARRWGKRKNKPKMNY [ETS2]	3.48 ± 0.48	3.67 ± 0.13	–	–
FKSLDKKNDGRIDAQEIMQSLRDL [SLC25A25]	4 ± 0.2	3.92 ± 0.34	–	–
FLPSLRPPPLTSPSHGSLSHSKAP [NCF4]	3.45 ± 0.13	3.63 ± 0.14	–	–
FNAGIQQAFQLPKLGALLSRCRKL [ZBED1]	2.63 ± 0.31	2.63 ± 0.29	–	–
FNMLHDNSKPCISLNGPLSTSRHV [ADAMTS4]	3.21 ± 0.22	3.26 ± 0.25	–	–
FPNQKSEAAEPPKTPPSSCDSTNA [KMT5A]	5.52 ± 0.13	5.53 ± 0.2	–	–
FPYFRSDRDKRDFVSAGAAAGVAA [CLCN6]	3.63 ± 0.45	3.82 ± 0.23	–	–
FQEAQIKRKARNEGRNRRRQQVLP [CDKL4]	3.79 ± 0.54	4.08 ± 0.14	–	–
FQPQPVQPQQGYIPPMAQPGLPPV [ZNF207]	3.5 ± 0.31	3.74 ± 0.26	–	–
FQSHEPEFDYLKSLEIEEKINKIR [PPP2R2B]	3.26 ± 0.36	3.56 ± 0.31	–	–
FSLTHTHTHTPNHRGINCFFPEL [ANKRD44]	–	–	2.54 ± 0.56	2.76 ± 0.57
FSLVLVLDLSKPNDLWPTMENLLQ [DYNC2LI1]	2.67 ± 0.51	2.72 ± 0.41	–	–
FSSQKLKCLSMFPHYICTLKQPHL [PNLIPRP1]	2.66 ± 0.57	2.17 ± 0.35	–	–
FTCDEENVFAAVGRGLYVYSLQMK [WDR41]	2.57 ± 0.56	2.38 ± 0.093	–	–
FTELRLLLDEEEALAKKFIDKNTQ [TRIM14]	2.68 ± 0.53	3.44 ± 0.93	–	–
FTRNEFNLESKSTIGVEFATRSIQ [RAB11A]	2.97 ± 0.3	3.2 ± 0.21	–	–
FTVNPKPRVEYIDRPRCCLRGKEC [BTBD1]	2.92 ± 0.11	3.23 ± 0.35	–	–
FVLSCSYDGLDCQARQFRTFHHPT [SCNN1D]	2.62 ± 0.74	2.63 ± 0.58	–	–
FVSFFNKWDAENAIQQMGGQWLGG [TIA1]	2.69 ± 0.78	2.1 ± 0.59	–	–
FVTYVFFVFFVLLNMFLAIINDTY [PKD2L1]	2.3 ± 0.47	2.26 ± 0.45	–	–
FYHCSNDDEGDSYSDNPCSCSQSH [SPRY1]	4.28 ± 0.076	4.31 ± 0.25	–	–

Sequence	protein stability index [1]	protein stability index [2]	protein stability index [3]	protein stability index [4]
FYKRRGASDLSSEEGWRLFKIDKE [SAT1]	3.32 ± 0.21	3.62 ± 0.49	–	–
GAGHCSASPGPAAPTARMPGRLRG	4.82 ± 0.34	4.78 ± 0.25	–	–
GAQELLEFTIRDLQRLGELQSELA [INTS4]	2.54 ± 0.36	2.79 ± 0.29	–	–
GAQGSGGGSTSAHYAVNSQFTMGG [CARM1]	3.92 ± 0.34	4.23 ± 0.2	–	–
GAQIWCGEGVDKLSLPARNQAGYF [ALDH8A1]	2.47 ± 0.27	2.65 ± 0.37	–	–
GARQQQVTTYLHKDYNNLWIIKKH [POMT2]	2.49 ± 0.27	2.58 ± 0.35	–	–
GATTLGDMIYVSGGFDGSRRHTSM [KLHL12]	2.88 ± 0.38	3.02 ± 0.5	–	–
GCVSRCWEVQVSPTCPVCKDRASP [TRIM35]	4.04 ± 0.28	4.13 ± 0.44	–	–
GDETAHRIDSQFLIGDTLLVAPVL [MYORG]	2.94 ± 0.3	2.85 ± 0.34	–	–
GDHRSPASAQKFSSRSTVPTPAKR [NET1]	4.75 ± 0.38	5.05 ± 0.23	–	–
GEKPFECNECGKAFRWGAHLVQHQ [ZNF232]	2.58 ± 0.52	2.62 ± 0.82	–	–
GEKSENNSSNSDIVHVEKEEVPEG [BCL2L13]	5.8 ± 0.2	5.3 ± 0.76	–	–
GFALNPDKKTCTKIDYCASSNHGC [MATN2]	3.53 ± 0.31	3.57 ± 0.64	–	–
GFEESEPLTGFLTTVPDGPTQLRA [TNXB]	4.44 ± 0.41	4.52 ± 0.3	–	–
GFQPPSPSLRPRPASSISLPIGHL [DMRTC1]	3.43 ± 0.21	3.44 ± 0.19	–	–
GFRESDSAKPASLRLLQHTPSARR [C6orf223]	4.49 ± 0.38	4.67 ± 0.3	–	–
GFRGSDDMELHRMSRMQSKEYPVV [TBX5]	3.93 ± 0.31	3.98 ± 0.31	–	–
GGLAESELRPRRGRCGPQAARAAG [POMT2]	3.71 ± 0.17	3.75 ± 0.38	–	–
GGLNRETNEKMLKAVFGKHGPISE [RBMY1A1]	3.69 ± 0.28	3.81 ± 0.19	–	–
GGRDFSAPLTISRVHAGSKAALAA [PDLIM4]	3.59 ± 0.24	3.85 ± 0.27	–	–
GGRGVSTCSTRFVSGGSAGGYGGG [KRT13]	3.77 ± 0.41	3.97 ± 0.15	–	–
GGVLIDRYGRRTAIILSSCLLGLG [SLC2A12]	2.86 ± 1	2.74 ± 1.3	–	–
GHEYAAKIINTKKLSARDHQKLER [CAMK2B]	4.09 ± 0.24	4.32 ± 0.19	–	–

Sequence	protein stability index [1]	protein stability index [2]	protein stability index [3]	protein stability index [4]
GIDLAVYETLKNAWLQHYAVNSAD [SLC25A25]	2.84 ± 0.44	2.4 ± 0.33	–	–
GILHYAHGDSQQTHLLKQGRSSMG [CRY1]	3.6 ± 0.23	3.52 ± 0.3	–	–
GKDQGINIRQKVKELVEFAQDDDR [CLINT1]	5.15 ± 0.42	4.91 ± 0.28	–	–
GKIDFPRHLDFHVKDLIKKLLVVD [PRKX]	2.44 ± 0.48	1.97 ± 0.078	–	–
GKVLQNKQAEICQLEEKLEIANED [CCDC89]	5.26 ± 0.37	5.44 ± 0.25	–	–
GLAIHCMQVHKETIDAVPNAIPGR [ZNF207]	2.94 ± 0.18	3.04 ± 0.16	–	–
GLHRRPGAGHCSASPGPAAPTARM	3.76 ± 0.31	3.64 ± 0.31	–	–
GLLWLLLGSAGAQYEKYSFRGFPP [P3H4]	3.08 ± 0.098	3.71 ± 0.62	–	–
GLNDALDNLRKVVPCYSKTQKLSK [NEUROD6]	3.25 ± 0.15	3.42 ± 0.18	–	–
GLNLGKKISVPRDVMLEELSLLTN [MYOZ1]	2.72 ± 0.41	3.1 ± 0.29	–	–
GLNSSWVELPMNSSNGNDNGNGKN [BNIP3L]	5.11 ± 0.42	5.54 ± 0.2	–	–
GNAHLGYSLVTHIPAGARDIQIVE [ADAMTSL2]	3.03 ± 0.34	3.24 ± 0.13	–	–
GNFDWEAIFDAGTLGGELGALEAL [FOXJ1]	4.15 ± 0.26	4.17 ± 0.34	–	–
GPGIPPLMPGMPPGMPPPVPRPGI [ZNF207]	4.29 ± 0.23	4.35 ± 0.33	–	–
GQSLLKDEALAIAALELLPRELFP [PRAME]	2.75 ± 0.41	2.84 ± 0.36	–	–
GQSVTAVGRIIAPLLSGVAQEVSP [MFSD9]	3.39 ± 0.19	3.44 ± 0.19	–	–
GREVELKPYIAAHFDVLPTEFTLG [PTPRD]	3.01 ± 0.37	3	–	–
GRGAQGENERVRGLETGDWGGAPK [ZSWIM9]	5 ± 0.21	4.98 ± 0.24	–	–
GRGAVVPGAGLRRPTYTPPSIMPQ [ZBTB22]	3.51 ± 0.3	3.74 ± 0.063	–	–
GSGADSEPARHIFSFSWLNSLNE [TRIM55]	–	–	3.53 ± 0.41	3.53 ± 0.26
